Laboratory results from publication PMC3791872, “Ciprofloxacin is an inhibitor of the Mcm2-7 replicative helicase”.

Experiments:
Test in all cases: double filter binding; 1 mM ciprofloxacin (modest effect); Double filter binding, 150 nM helicase hexamer, 4 nM ssDNA, 20 min inhibitor preincubation at 37 C; binding buffer not stated in the material (helicase buffer:)
Mcm467 = Mcm467 (UniProt P30665;P53091;P38132 1-933;1-1017;1-845); conditions: chain copies: 2;2;2; label: 5'-32P; single strand
[1] = biological target: SV40 large T antigen (TAg) (SV40, UniProt P03070 1-708); conditions: chain copies: 6; label: 5'-32P; single strand
Chain of SV40 large T antigen (TAg) (P03070 whole entry): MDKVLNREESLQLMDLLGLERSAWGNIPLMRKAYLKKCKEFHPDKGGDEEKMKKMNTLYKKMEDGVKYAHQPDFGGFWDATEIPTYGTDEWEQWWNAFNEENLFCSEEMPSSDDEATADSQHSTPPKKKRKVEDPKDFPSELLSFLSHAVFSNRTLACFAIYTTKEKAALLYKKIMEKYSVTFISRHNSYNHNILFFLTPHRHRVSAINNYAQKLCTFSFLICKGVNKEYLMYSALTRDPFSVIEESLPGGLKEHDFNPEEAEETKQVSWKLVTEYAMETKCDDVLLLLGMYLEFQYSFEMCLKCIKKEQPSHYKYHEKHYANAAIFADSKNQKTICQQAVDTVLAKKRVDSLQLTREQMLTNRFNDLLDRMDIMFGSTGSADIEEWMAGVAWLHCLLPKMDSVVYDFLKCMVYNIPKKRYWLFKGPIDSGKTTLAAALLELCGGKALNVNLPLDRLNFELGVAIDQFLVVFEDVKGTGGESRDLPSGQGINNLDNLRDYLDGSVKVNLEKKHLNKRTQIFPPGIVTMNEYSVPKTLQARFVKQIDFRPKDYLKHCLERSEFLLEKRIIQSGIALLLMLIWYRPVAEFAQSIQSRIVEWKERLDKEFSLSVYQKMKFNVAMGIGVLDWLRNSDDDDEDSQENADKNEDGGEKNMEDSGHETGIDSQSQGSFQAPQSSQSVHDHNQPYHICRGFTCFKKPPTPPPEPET

Mcm2-7 = Mcm2-7 (UniProt P29469;P24279;P30665;P29496;P53091;P38132 1-868;1-971;1-933;1-775;1-1017;1-845); conditions: copies: 1;1;1;1;1;1; label: 5'-32P; single strand

Measured: binding result

Chain of Mcm467 (P30665 whole entry, chain 1 of 3): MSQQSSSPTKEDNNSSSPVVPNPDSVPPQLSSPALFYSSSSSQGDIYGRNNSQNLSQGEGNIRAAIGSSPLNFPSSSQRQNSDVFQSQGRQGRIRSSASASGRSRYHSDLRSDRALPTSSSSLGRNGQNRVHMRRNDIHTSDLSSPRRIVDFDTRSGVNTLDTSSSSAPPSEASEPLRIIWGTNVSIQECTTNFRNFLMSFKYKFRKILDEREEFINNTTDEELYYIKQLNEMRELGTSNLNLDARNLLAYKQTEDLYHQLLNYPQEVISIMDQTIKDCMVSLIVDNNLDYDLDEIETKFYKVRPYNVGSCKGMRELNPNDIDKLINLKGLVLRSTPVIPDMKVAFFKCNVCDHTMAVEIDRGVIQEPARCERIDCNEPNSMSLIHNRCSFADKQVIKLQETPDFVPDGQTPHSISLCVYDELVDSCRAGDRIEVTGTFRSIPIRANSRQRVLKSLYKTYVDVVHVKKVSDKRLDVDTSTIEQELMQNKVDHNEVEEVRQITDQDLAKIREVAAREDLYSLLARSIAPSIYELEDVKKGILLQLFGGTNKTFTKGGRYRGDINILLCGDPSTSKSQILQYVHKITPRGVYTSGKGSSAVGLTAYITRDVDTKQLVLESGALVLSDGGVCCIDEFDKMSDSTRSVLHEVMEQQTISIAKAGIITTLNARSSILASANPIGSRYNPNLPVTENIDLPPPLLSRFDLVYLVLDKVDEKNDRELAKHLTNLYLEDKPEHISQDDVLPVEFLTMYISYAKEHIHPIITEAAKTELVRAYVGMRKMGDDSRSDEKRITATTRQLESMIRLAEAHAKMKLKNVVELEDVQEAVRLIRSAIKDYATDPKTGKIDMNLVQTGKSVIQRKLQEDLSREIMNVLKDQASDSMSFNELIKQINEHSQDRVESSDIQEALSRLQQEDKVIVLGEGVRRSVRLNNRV
Chain of Mcm467 (P53091 whole entry, chain 2 of 3): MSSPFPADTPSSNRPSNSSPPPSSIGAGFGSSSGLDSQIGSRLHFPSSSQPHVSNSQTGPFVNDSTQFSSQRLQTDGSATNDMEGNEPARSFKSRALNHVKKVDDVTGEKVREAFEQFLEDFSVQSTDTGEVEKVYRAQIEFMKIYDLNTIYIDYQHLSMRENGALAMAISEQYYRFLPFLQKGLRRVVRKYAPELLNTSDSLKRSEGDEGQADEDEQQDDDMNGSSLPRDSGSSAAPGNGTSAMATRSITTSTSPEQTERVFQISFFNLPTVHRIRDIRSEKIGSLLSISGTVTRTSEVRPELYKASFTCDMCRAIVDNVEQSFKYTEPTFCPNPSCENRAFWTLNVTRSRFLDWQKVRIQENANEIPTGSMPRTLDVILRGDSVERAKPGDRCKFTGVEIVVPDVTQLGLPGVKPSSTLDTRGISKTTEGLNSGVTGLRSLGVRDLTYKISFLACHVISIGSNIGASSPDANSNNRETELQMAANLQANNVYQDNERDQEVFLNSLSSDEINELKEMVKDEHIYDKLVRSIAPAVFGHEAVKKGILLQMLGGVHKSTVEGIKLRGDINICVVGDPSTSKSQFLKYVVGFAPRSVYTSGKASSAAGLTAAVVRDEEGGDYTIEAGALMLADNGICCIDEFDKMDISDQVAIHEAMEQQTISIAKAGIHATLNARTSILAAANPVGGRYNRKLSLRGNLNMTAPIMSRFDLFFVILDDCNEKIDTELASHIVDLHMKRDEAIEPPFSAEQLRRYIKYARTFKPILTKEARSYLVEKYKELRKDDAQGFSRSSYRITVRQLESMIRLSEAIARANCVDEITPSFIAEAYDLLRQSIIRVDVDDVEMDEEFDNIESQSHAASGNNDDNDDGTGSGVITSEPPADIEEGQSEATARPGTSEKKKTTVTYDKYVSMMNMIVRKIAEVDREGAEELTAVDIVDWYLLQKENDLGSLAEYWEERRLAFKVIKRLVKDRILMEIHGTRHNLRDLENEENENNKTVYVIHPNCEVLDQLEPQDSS
Chain of Mcm467 (P38132 whole entry, chain 3 of 3): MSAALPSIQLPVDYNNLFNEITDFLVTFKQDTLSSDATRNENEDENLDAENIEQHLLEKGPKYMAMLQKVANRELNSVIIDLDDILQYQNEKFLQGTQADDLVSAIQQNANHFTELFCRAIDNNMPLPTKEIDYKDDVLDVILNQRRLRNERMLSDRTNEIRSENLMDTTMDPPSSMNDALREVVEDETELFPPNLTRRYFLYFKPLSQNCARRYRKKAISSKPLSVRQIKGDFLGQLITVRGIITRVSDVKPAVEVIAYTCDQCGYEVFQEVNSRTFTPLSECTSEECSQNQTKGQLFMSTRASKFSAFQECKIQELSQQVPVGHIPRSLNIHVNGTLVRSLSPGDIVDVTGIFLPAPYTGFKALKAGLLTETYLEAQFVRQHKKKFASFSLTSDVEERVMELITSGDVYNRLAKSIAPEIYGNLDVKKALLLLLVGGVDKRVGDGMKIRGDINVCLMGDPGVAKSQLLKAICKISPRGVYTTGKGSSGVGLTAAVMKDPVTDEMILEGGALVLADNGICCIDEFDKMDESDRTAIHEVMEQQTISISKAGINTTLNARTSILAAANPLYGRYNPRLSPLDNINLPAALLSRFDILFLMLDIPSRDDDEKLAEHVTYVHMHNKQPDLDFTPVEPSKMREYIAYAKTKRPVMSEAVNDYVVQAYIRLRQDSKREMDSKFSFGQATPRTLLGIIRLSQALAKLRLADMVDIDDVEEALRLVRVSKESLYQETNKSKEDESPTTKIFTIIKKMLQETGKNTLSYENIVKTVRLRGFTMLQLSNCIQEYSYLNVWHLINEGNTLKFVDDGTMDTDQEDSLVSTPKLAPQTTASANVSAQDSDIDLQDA

TGTCTAATCCCGAAAGGCCCTGCCACTGAAATCAACACCTAAAGCATTGA (ssDNA) [oligo 826]
binds: all assays above
